According to the supplement of paper PMC7877785:
± gives the uncertainty stated by the source.

Experiment: self-splicing fitness, log relative to wild type (ln ratio); higher = more splicing; Tetrahymena group I intron in knt gene, E. coli kanamycin selection, DiMSum; sequences stand for … in CUCUCU…GGAGGGAAAAGUUAUCAGGCAUGCACCUGGUAGCUAGUCUUUAAACCAAUAGAUUGCAUCGGUUUAAAAGGCAAGACCGUCAAAUUGCGGGAAAGGGGUCAACAGCCGUUCAGUACCAAGUCUCAGGGGAAACUUUGAGAUGGCCUUGCAAAGGGUAUGGUAAUAAGCUGACGGACAUGGUCCUAACCACGCAGCCAAGUCCUAAGUCAACAGAUCUUCUGUUGAUAUGGAUGCAGUUCACAGACUAAAUGUCGGUCGGGGAAGAUGUAUUCUUCUCAUAAGAUAUAGUCGGACCUCUCCUUAAUGGGAGCUAGCGGAUGAAGUGAUGCAACACUGGAGCCGCUGGGAACUAAUUUGUAUGCGAAAGUAUAUUGAUUAGUUUUGGAGUACUCGUGGUCG
Outline: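 Pooled colonies went to amplicon sequencing on an Illumina HiSeq 2500 after six replicate transformations. The plates were LB agar with 100 μg/mL carbenicillin, 50 μM IPTG and 0.2% rhamnose, with or without 25 μg/mL kanamycin, incubated overnight at 37°C or 30°C. The E. coli BL21(DE3) library had all eight P1ex-region intron nucleotides randomised, the intron placed in the knt kanamycin-resistance gene on pET-22b(+). DiMSum fitness is the error-weighted combination of replicate fold changes, kanamycin against none, normalised to wild type.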

Row | Sequence | self-splicing fitness (ln) (30 °C) | self-splicing fitness (ln) (37 °C)
1 | GCCAAGCAAUAUUACGACUG | -4.32 ± 0.23 | -1.94 ± 0.15
2 | CGAAAGCAAUAUUACGACAU | -2.721 ± 0.017 | -1.41 ± 0.034
3 | UUCGAGCAAUAUUACGAUCC | -2.6 ± 0.49 | –
4 | GGGAAGCAAUAUUACGAAAG | – | -2.48 ± 0.41
5 | GAUCAGCAAUAUUACGAGUG | -1.2 ± 0.06 | -1.21 ± 0.079
6 | AGCUAGCAAUAUUACGCCUU | -1.7 ± 0.1 | -0.609 ± 0.08
7 | CGUGAGCAAUAUUACGCAAU | -2.52 ± 0.14 | -2.75 ± 0.25
8 | ACUGAGCAAUAUUACGUUAG | -3.64 ± 0.2 | -0.75 ± 0.19
9 | GAUAAGCAAUAUUACGGAUG | -2.76 ± 0.11 | -1 ± 0.11
10 | AGCAAGCAAUAUUACGGUGU | -2.65 ± 0.13 | -0.608 ± 0.1
11 | UUCAAGCAAUAUUACGUUUC | -3.02 ± 0.13 | -2.25 ± 0.18
12 | AGUAAGCAAUAUUACGUUUG | -4.38 ± 0.29 | -2.13 ± 0.21
13 | ACUUAGCAAUAUUACGUGCU | -1.9 ± 0.094 | -1.06 ± 0.1
14 | CAAUAGCAAUAUUACGUAGG | -0.348 ± 0.092 | -0.384 ± 0.14
15 | CUAUAGCAAUAUUACGGUUG | -0.804 ± 0.088 | 0.0411 ± 0.1
16 | ACACAGCAAUAUUACGCACU | -0.282 ± 0.045 | 0.182 ± 0.058
17 | CUGAAGCAAUAUUACGUGCG | 0.0994 ± 0.061 | -0.325 ± 0.073
18 | GAAAAGCAAUAUUACGUCCA | -0.703 ± 0.064 | 0.0901 ± 0.089
19 | CUUUAGCAAUAUUACGCACC | -2.92 ± 0.43 | –
20 | CGUCAGCAAUAUUACGACAA | -0.159 ± 0.14 | 0.0303 ± 0.14
21 | ACAAAGCAAUAUUACGUAAA | -2.08 ± 0.069 | -0.302 ± 0.092
22 | CAGGAGCAAUAUUACGUCUU | -2.33 ± 0.095 | -2.16 ± 0.11
23 | GCGAAGCAAUAUUACGGCGG | -2.38 ± 0.19 | -1.34 ± 0.27
24 | GUGGAGCAAUAUUACGACUU | -2.79 ± 0.34 | -0.283 ± 0.24
25 | UGUCAGCAAUAUUACGUUUC | – | -2.07 ± 0.28

Row | Sequence | self-splicing fitness (ln) (30 °C) | self-splicing fitness (ln) (37 °C)
26 | ACCGAGCAAUAUUACGCUUU | -3.06 ± 0.28 | -1.56 ± 0.15
27 | AAUCAGCAAUAUUACGUGAG | -0.184 ± 0.047 | 0.612 ± 0.077
28 | CUGAAGCAAUAUUACGGCUA | -3.03 ± 0.25 | -1.22 ± 0.25
29 | AGCGAGCAAUAUUACGGCGU | -0.762 ± 0.11 | -0.808 ± 0.093
30 | AGACAGCAAUAUUACGUUCA | -0.336 ± 0.056 | -0.159 ± 0.086
31 | UUCCAGCAAUAUUACGUAUG | -3.02 ± 0.13 | -1.38 ± 0.14
32 | CUGUAGCAAUAUUACGACCA | -1.45 ± 0.38 | –
33 | CUUCAGCAAUAUUACGUCCA | -2.19 ± 0.29 | -2.63 ± 0.36
34 | AGUAAGCAAUAUUACGUUUA | -2.84 ± 0.22 | -1.56 ± 0.18
35 | GCGUAGCAAUAUUACGUGAU | -2.79 ± 0.24 | -1.56 ± 0.19
36 | GGUUAGCAAUAUUACGACUA | 0.135 ± 0.11 | 0.423 ± 0.14
37 | UGGAAGCAAUAUUACGGAAG | -1.69 ± 0.12 | -1.46 ± 0.17
38 | CUAUAGCAAUAUUACGACCA | -3.1 ± 0.29 | -2.44 ± 0.35
39 | CUGGAGCAAUAUUACGAAUA | -3.07 ± 0.4 | -2.15 ± 0.47
40 | GAACAGCAAUAUUACGCACU | 0.254 ± 0.079 | 0.0329 ± 0.11
41 | CUUGAGCAAUAUUACGGUGC | -3.34 ± 0.35 | -2.19 ± 0.42
42 | UCAUAGCAAUAUUACGUCCC | -2.19 ± 0.49 | –
43 | UGUAAGCAAUAUUACGGUCG | 0.275 ± 0.081 | -0.0342 ± 0.098
44 | ACGGAGCAAUAUUACGAUGA | -2.56 ± 0.12 | -2.57 ± 0.19
45 | UCUGAGCAAUAUUACGCGAC | – | -2.85 ± 0.48
46 | CAUAAGCAAUAUUACGAAAA | – | -3.32 ± 0.34
47 | CUUGAGCAAUAUUACGGUUA | -2.25 ± 0.15 | -3.21 ± 0.3
48 | CGGAAGCAAUAUUACGCAAU | -3 ± 0.26 | -2.69 ± 0.26
49 | AGCCAGCAAUAUUACGCCGC | -2.98 ± 0.28 | -3.25 ± 0.37
50 | UGUAAGCAAUAUUACGGUGU | -3.61 ± 0.22 | -0.0793 ± 0.17

Row | Sequence | self-splicing fitness (ln) (30 °C) | self-splicing fitness (ln) (37 °C)
51 | UUCGAGCAAUAUUACGGGUG | -1.78 ± 0.074 | -1.42 ± 0.086
52 | GGUUAGCAAUAUUACGUAGC | -2.18 ± 0.16 | -1.97 ± 0.17
53 | AUUUAGCAAUAUUACGAGUU | -2.58 ± 0.3 | -0.85 ± 0.23
54 | GUCCAGCAAUAUUACGUCUC | 0.725 ± 0.087 | -0.134 ± 0.087
55 | CGUAAGCAAUAUUACGCCUA | – | -2.18 ± 0.27
56 | UACAAGCAAUAUUACGGACC | -2.74 ± 0.14 | -0.499 ± 0.18
57 | GUUAAGCAAUAUUACGGCUC | 0.46 ± 0.2 | -0.6 ± 0.21
58 | ACAAAGCAAUAUUACGUUCC | -2.06 ± 0.11 | -1.73 ± 0.15
59 | CCGGAGCAAUAUUACGAUAC | – | -1.97 ± 0.36
60 | UUGCAGCAAUAUUACGAGAA | – | -1.47 ± 0.34
61 | UUGCAGCAAUAUUACGGAGA | -1.85 ± 0.12 | -1.08 ± 0.096
62 | GACCAGCAAUAUUACGGCCC | -2.54 ± 0.24 | -1.98 ± 0.34
63 | UUGUAGCAAUAUUACGGCCU | -0.844 ± 0.2 | -0.408 ± 0.25
64 | GGUUAGCAAUAUUACGUUAU | -1.61 ± 0.1 | -0.954 ± 0.1
65 | CCCUAGCAAUAUUACGACUC | -4.18 ± 0.28 | -2.71 ± 0.24
66 | UUGCAGCAAUAUUACGAAGG | -3.92 ± 0.28 | -1.53 ± 0.2
67 | AGGGAGCAAUAUUACGAACA | -3.22 ± 0.45 | -1.72 ± 0.31
68 | UUAAAGCAAUAUUACGGAGA | -1.64 ± 0.15 | 0.00703 ± 0.2
69 | CGCAAGCAAUAUUACGAAGC | -2.55 ± 0.13 | -3.1 ± 0.19
70 | GCUGAGCAAUAUUACGGCUG | -1.57 ± 0.26 | -1.96 ± 0.44
71 | GACGAGCAAUAUUACGUCUA | -2.4 ± 0.23 | -1.43 ± 0.13
72 | CCUGAGCAAUAUUACGAGUA | -2.98 ± 0.21 | -3.03 ± 0.43
73 | UGGAAGCAAUAUUACGGCGU | -1.16 ± 0.13 | 0.0292 ± 0.12
74 | UGUUAGCAAUAUUACGCUGA | -2.26 ± 0.44 | –
75 | AGAAAGCAAUAUUACGCAUC | -2.53 ± 0.34 | –

Row | Sequence | self-splicing fitness (ln) (30 °C) | self-splicing fitness (ln) (37 °C)
76 | GUGAAGCAAUAUUACGACCG | -1.63 ± 0.23 | 0.706 ± 0.28
77 | CAACAGCAAUAUUACGAAGG | -0.969 ± 0.059 | -0.0092 ± 0.078
78 | CCAUAGCAAUAUUACGACGA | -3.14 ± 0.21 | -1.42 ± 0.14
79 | AGGUAGCAAUAUUACGACCU | -3.04 ± 0.031 | -2.42 ± 0.049
80 | CACGAGCAAUAUUACGAGGA | -2.27 ± 0.15 | -2.68 ± 0.16
81 | UGCUAGCAAUAUUACGAUAA | -1.64 ± 0.15 | -0.358 ± 0.14
82 | AAUGAGCAAUAUUACGCCUG | -3.5 ± 0.2 | -2.85 ± 0.26
83 | ACCUAGCAAUAUUACGAGAA | -2.97 ± 0.35 | -2.29 ± 0.31
84 | UUGUAGCAAUAUUACGCCGC | – | -2.68 ± 0.4
85 | GUUAAGCAAUAUUACGAGGU | – | -2.51 ± 0.34
86 | ACACAGCAAUAUUACGGGAC | -3.3 ± 0.14 | -2.12 ± 0.14
87 | UUUUAGCAAUAUUACGUGGU | -3.72 ± 0.35 | -3.24 ± 0.42
88 | CCUUAGCAAUAUUACGGACC | -2.33 ± 0.3 | –
89 | ACUUAGCAAUAUUACGUGAC | -2.05 ± 0.21 | -2.54 ± 0.29
90 | GACGAGCAAUAUUACGAAGG | -3.03 ± 0.19 | -2.52 ± 0.33
91 | GAUAAGCAAUAUUACGGGAG | -4.18 ± 0.25 | -2.34 ± 0.15
92 | GGUAAGCAAUAUUACGUAUU | -2.21 ± 0.12 | -1.22 ± 0.13
93 | AAUCAGCAAUAUUACGAUUG | -1.54 ± 0.064 | -0.631 ± 0.085
94 | AAUCAGCAAUAUUACGCCCU | 0.314 ± 0.099 | 0.0253 ± 0.12
95 | CAGAAGCAAUAUUACGGGGA | -4.87 ± 0.36 | -1.61 ± 0.11
96 | GGGUAGCAAUAUUACGGGAC | -2.79 ± 0.2 | -0.633 ± 0.13
97 | CGUGAGCAAUAUUACGCUAU | -2.39 ± 0.17 | -2.49 ± 0.23
98 | GAGGAGCAAUAUUACGCUGC | -4.13 ± 0.38 | –
99 | AGGUAGCAAUAUUACGGGCU | -0.801 ± 0.016 | -0.848 ± 0.035
100 | ACUUAGCAAUAUUACGGCAG | -1.6 ± 0.092 | -0.759 ± 0.12
